Data from the nanobody polyreactivity screen of Harvey et al. (2022).

Assay: yeast display, Sf9 membrane polyspecificity reagent, FACS + sequencing; frameworks hold sequencing errors
Outline: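 Polyreactivity labels are assigned by the sorting gate from which each nanobody was recovered. The gates were low and high (top ~1%), set on anti-HA fluorescence for expression and streptavidin fluorescence for reagent binding. Before sorting, galactose-induced (36–48 hours) yeast display cells were stained for 1 hour at 4 °C with 10% biotinylated, detergent-solubilized Sf9 membrane reagent.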

Sequence	polyreactivity (PSR sort gate)
QVQLVESGGGLVQAGGSLRLSCAASGGTFVGYAMGWSRQAPGKERELVASITRRGGNTYYADSVKVRFTISRDNATNTFYLQMNSLNPEDTAVYYCANALVVQYGRYTGHPYDYWGQGTQVTVSS	high polyreactivity
QVQLVESGGGLVQAGGSLRLSCAASGGTFVYYTMGWYRQAPGKERELVAAITQSGSTTYYADSVKGRFTISRDNAKNTVYLQMNSLKPEDTAVYYCARRYGTWNAYDYWGQGTQVTVSS	low polyreactivity
QVQLVESGGGLVQAGGSLRLSCAASGGTFYGYAAMGWYRQAPGKERELVAAISRSGGRTYYADSVKGRFTISRDNAKNTVYLQMNSLKPEDTAVYYCNVGFYPYYFLTYQGGDYWGQGTQVTVSS	high polyreactivity
QVQLVESGGGLVQAGGSLRLSCAASGGTFYGYAMGWYRQAPGKERELVAAISYNGGNTYYADSVKGRFTISRDNAKNTVYLQMNSLKAEDTAVYYCAAGYSYRYGYWGQGTQLTVSS	low polyreactivity
QVQLVESGGGLVQAGGSLRLSCAASGGTFYPYAMGWYRQAPGKERELVAAISASDDNTYYADSVKGRFTISRDNAKNTVYLQMNSLKPEDTAVYYCAKRSYFYPYGYWGQGTQVTVSS	high polyreactivity
QVQLVESGGGLVQAGGSLRLSCAASGGTFYRNAMGWSRQAPGKERELVAAINYRGDRTYYADSVKGRFTISRDNAKNTVYLQMNSLKPEDTAVYYCAADSYPAYLGFVGFDYWGQGTQVTVSS	low polyreactivity
QVQLVESGGGLVQAGGSLRLSCAASGGTFYRYAMGWYRQAPGKERELVAVISKRGGTTYYADSVKGRFTISRDNAKITVYLQMNSLKPEDTAVYYCADRPYYWGQGTQVTVSS	high polyreactivity
QVQLVESGGGLVQAGGSLRLSCAASGGTFYSYAMGWYRQAPGIEREVVAAISRRGGSTYYADSVKGRFTISRDNAKNTVYLLMNSLKPEDTAVYFCNTYIYQVRDDYWGQGTQVTVSS	high polyreactivity
QVQLVESGGGLVQAGGSLRLSCAASGGTFYYYAMGWYRQAPGKERELVAAISRDGSTYYADSVKGRFTISRDNAKNTVYLQMNSLKPEDTAVYYCAVRTRRKYGYWGQGTQVTVSS	high polyreactivity
QVQLVESGGGLVQAGGSLRLSCAASGGTIAPYAMGWSRQAPGKERELVATISYSGTSTNYADSVKGRFTISRDNAKNTVYLQMNSLKPEDTAVYDCAKRYHQYRWRGWLWGFDYWGQGNQVTVSS	high polyreactivity
QVQLVESGGGLVQAGGSLRLSCAASGGTIFAYAMGWYIQAPRERELVPAISWSGDSTYYADSLKGRFTISRDNAKNTVYLQMNSLKPEETAVYYCAADYGFEFYYWGQGTQVTVAS	high polyreactivity
QVQLVESGGGLVQAGGSLRLSCAASGGTIGSNTMGWYRQAPGKERELVAAITSGVSTNYADSVKGRFTISRDNAKNTVYLQMISLKPEDNAVYYCAKVLWSEEYETIITSYGFDYWGQGTQVTVSS	low polyreactivity
QVQLVESGGGLVQAGGSLRLSCAASGGTINGNTMGWYRQAPGKERELVAVIDWSGGSTYYADSVKGRFTISRDNAKNTVYLQMNSLKPEDTAVNYCNADSDAQFREPKGMYYWGQGTQVTLSS	low polyreactivity
QVQLVESGGGLVQAGGSLRLSCAASGGTIRVYAMRWYRQAPGKERELVAAITGRGGSTYYADSVKGRFTISRDNAKNTVYLQMNSLKPEDTAVYYCAKDPVTTYYKYDYWGQGTQVTVSS	low polyreactivity
QVQLVESGGGLVQAGGSLRLSCAASGGTIVYYAMGWYREAPGKERELVAAINWSGGSTYYADSVKGRFTISRDKAKNTVYLQMNSLKPEDTAVLLLQRSGLRRSGVWFDYWGQGTQVTVSS	low polyreactivity
QVQLVESGGGLVQAGGSLRLSCAASGGTIYFYDMGWYRQAPGKEREFVAAIDGSAGRTYYADSVKGRFTISRDNAKNTVYLQMNSLKPEDTAVYYCAADWAQQSEQEYGTTYDYWGQGTQVTVSS	low polyreactivity
QVQLVESGGGLVQAGGSLRLSCAASGGTLKYYAMGLYRQAPGKERELVATISSRGGSTYYADSVKGRFTISRDNAKNTVYLQMNSLKPEDTAVYYCARRYWVQSRYPELDYWGQGTQVTVSS	high polyreactivity
QVQLVESGGGLVQAGGSLRLSCAASGGTLPKYAMGWYRQAPGKERELVARITWNDGTTYYADSVKGRFTISRDNAKNTVYLQMNSLKPEDTAVYYCNTDRAYWFLYPFSYYYWGQGTQVTVSS	low polyreactivity
QVQLVESGGGLVQAGGSLRLSCAASGGTLRGNAMGWYRQAPGKERELVAAISGSAGRTYYADSVKGRFTISRDNAKNTVYLQMTSLKPVDTAVYYCAASRRVVKMDYWGQGTQVTVSS	high polyreactivity
QVQLVESGGGLVQAGGSLRLSCAASGGTLYLYAMGWYRQAPGKERELVAAISYNGGSTYAESVKGRFTISRDNAKNTVYLQKNSLKPEDTAVYYCAADRSPRGLGGYWGQGTQVTVSS	low polyreactivity
QVQLVESGGGLVQAGGSLRLSCAASGGTPQNAMGWYRQAPGKDRELVAAISKRGGSTYYADSVKGRFTISRDNAKNTGYLQMNSLKPEDTAVYDCAAVSQRAQHTSEYDYWGQGTQVTVSS	high polyreactivity
QVQLVESGGGLVQAGGSLRLSCAASGGTQRYYAMGWYRQAPGKERDFVASISRSGGSTYYADTVKGRFTISRDNAKNTVYLQMNSLKPEDTAVYYCAAYWSPGYTTRRGYWGQGTQVTVSS	high polyreactivity

Sequence	polyreactivity (PSR sort gate)
QVQLVESGGGLVQAGGSLRLSCAASGGTQRYYVMGSYRQAPGKERELVAAISWSGDSTYYADSVKGRFTISRDNAKNTVYLQMNSLKPEDTAVYYCAATYYLTYYYGQANHCYDYWGQGTQVTVSS	low polyreactivity
QVQLVESGGGLVQAGGSLRLSCAASGGTSIYNDMGWYRQAPGKERELVAAISWSGGSTYYADSVKGRFTISRDNAKNTVYLQMNSLKPEDTAVYYCATQGFYKDYSRYDYWGQVTQVTVSS	low polyreactivity
QVQLVESGGGLVQAGGSLRLSCAASGGTSQRYVMGWYRQAPGKERELVAAITSTGSTYYADSVKWRFTISRDNAKNTVYLQMNSLKPEDTAVYYCATGRLRIYKSYYWGQGTQVTVSS	high polyreactivity
QVQLVESGGGLVQAGGSLRLSCAASGGTYRSNAMGWYRQAPGKERELVAASTNYADSVKGRFTISRDNAKNTVYLQMNSLKPEDTAVYYCAAGPTDSQTGMDYWGQGTQVTVSS	low polyreactivity
QVQLVESGGGLVQAGGSLRLSCAASGHIFLGNVMGWYRQAPGKERELVAAISKRGGRTYYADSVKGRFTISRDNAKNTVYLQMNSLKPEDTAVYYCAAVIDSREEYWGQGTQVTVSS	high polyreactivity
QVQLVESGGGLVQAGGSLRLSCAASGHSFFYYTMGWYRQAPGKERELVAGITIGGSTNYADSVKGRFTISRDNAKNTVYLQMNSLKPEETAVYYCKKRYVVSRKYDYWGQGTQVTVSS	low polyreactivity
QVQLVESGGGLVQAGGSLRLSCAASGHTFRFYTMGWSRQAPGKEREFVAAIRRRTGSTYYADSVKGRFTISRDNAKNTVYLQMNSLKPEDTAVYYCNAVGDARYNYWGQGTQVTVSS	high polyreactivity
QVQLVESGGGLVQAGGSLRLSCAASGIFAWNAMGWYRQAPGKERELVAAISWSGGSTYADSVKGRFTISRDNAKNTVYLQMNSLKPEDTAVYYCAKVSSLTSKSDYSGQGTQVTVSS	low polyreactivity
QVQLVESGGGLVQAGGSLRLSCAASGIFFLYGMGWYIQAPGKQRELVAVISTRDTTDYADSVKGRFTISRDKSKNTVNIQMNSLKPEDTAVYFCAATARSRSYSWSKLNYWGQGTQVTLSS	low polyreactivity
QVQLVESGGGLVQAGGSLRLSCAASGIFGGYAMGWYIQAPRKERELVAAITSGGSTYYADSVKGRFTISRDNAKNTVYLQMNSLKPEDTAVYYCAARPRGTYSRLGYWGQGTQVTVSS	high polyreactivity
QVQLVESGGGLVQAGGSLRLSCAASGIFGSYAMGWYRQAPGKERELVAAISSGGSTYYADSVKGRFTISRDNAKNTVYLQMNSLKPEDTAVYYCAKRYGRAYRSYYWGQGTQVTVSS	high polyreactivity
QVQLVESGGGLVQAGGSLRLSCAASGIFLKYAKGWYRPAPGKERELVPAIRKRGGSTYYADSVKGRFTISRDNAKNTVYLQMNSLKPEDTAVYYCATRYTYHPGSAGFDYWGQGTQVTVSS	high polyreactivity
QVQLVESGGGLVQAGGSLRLSCAASGIFRRYAMGWYREAPGKERELVAAISSNGGSTYYADSVKGRFTISRDNAKNTVYLQMNSLKPEDTAVYYCNADVYVWNYKYYSWGQGTQVTVSS	high polyreactivity
QVQLVESGGGLVQAGGSLRLSCAASGIFRYYAMGWYRQAPGKERELVASITGGGSTYYADSVKGRFTISRDNAKMTVYLQLNSLKPEDTAVYYCNTAGAYYRWTPYYYWGQGTQVTVSS	high polyreactivity
QVQLVESGGGLVQAGGSLRLSCAASGIFRYYAMGWYRQAPGKERELVATITRSSGSTYYADSVKGRFTISRDNAKNTVYLQMNSLKPEDTAVYYCAARGPYFNRGTRYDYWGQGTQVTVSS	high polyreactivity
QVQLVESGGGLVQAGGSLRLSCAASGIFVSYAMGWYRQAPGKDRAVVAAISSSGGSTYYADSVKGRFTISRDNAKNTVYLQMNSLKPEDTAVYYGAARLVKSQTTVQGYYWGQGTQVTVSS	high polyreactivity
QVQLVESGGGLVQAGGSLRLSCAASGIICVKYTMGWYRQAPGKERELVAAISRSGGSTYYADSVKGRFTISRDNAKNTVYLQMNSLKPEDTAVYYCNAVSRKVYPGPMDYWGHGTQVTVSS	high polyreactivity
QVQLVESGGGLVQAGGSLRLSCAASGIICYENTMGWYRQAPGKERELVAAINSGGSTYYADSVKGRFTISRDNAKNTVYLQMNSLKPEDTAVYYCAADDYSGLYYSSTYRYEYWGQGTQVTVSS	low polyreactivity
QVQLVESGGGLVQAGGSLRLSCAASGIIFAANAMAWYRQAPGKERELVAAISKNGGITYYADSVKGRFTISRDNAKNTVYLQMNSLIPEDTAVYDCSARWRQTRRYYYWGQGTKVTVSS	high polyreactivity
QVQLVESGGGLVQAGGSLRLSCAASGIIFADYAMGWSRQAPGKERELVAAISSGDSTYYADSVKGRFTMSLDNAKNTVYLQMNSLKPEDTAVYYSAARLFRNKYRIAKMNYWGQGTQVTVSS	high polyreactivity
QVQLVESGGGLVQAGGSLRLSCAASGIIFAIYAMGWYRQAPGKESELVAAITWRGGSTYYADSVKGRFTISRDNAKNTVYLQRNSLKPEDTAVYYCDAVTKSLYGYDYWGQGSQVTVSS	low polyreactivity
